Experimental data as given in patent US20150374794A1 (Novo Nordisk, published 2015).
Numbered stars: 1 amine (or outer) side, 2 acyl side, 3 side chain; on linkers, the order of the positions; unused ones are H or OH. Square brackets hold non-standard residues; d marks the D form. Side chains are listed from the residue outwards. Ends that are not written are not given here. * marks the point of attachment. C18 diacid = O=C(O)CCCCCCCCCCCCCCCCC(=O)*; γGlu = O=C(O)[C@H](CCC(=O)[*:2])N[*:1]; AEEA = NCCOCCOCC(=O)O; Ac3c = NC1(C(=O)O)CC1; Aib = CC(C)(N)C(=O)O

B1: N^ε28-[(4S)-4-carboxy-4-[[(4S)-4-carboxy-4-[[2-[2-[2-[[2-[2-[2-[[(4S)-4-carboxy-4-(17-carboxyheptadecanoylamino)butanoyl]amino]ethoxy]ethoxy]acetyl]amino]ethoxy … (peptide)
peptide: H[Ac3c]QGTFTSDLSKYLESRRAREFVQWLLK([γGlu-γGlu-AEEA-AEEA-γGlu-C18 diacid])T-NH2
modifications: N-terminus assumed
SMILES: CC(C)C[C@H](NC(=O)[C@H](Cc1ccc(O)cc1)NC(=O)[C@H](CCCCN)NC(=O)[C@H](CO)NC(=O)[C@H](CC(C)C)NC(=O)[C@H](CC(=O)O)NC(=O)[C@H](CO)NC(=O)[C@@H](NC(=O)[C@H](Cc1ccccc1)NC(=O)[C@@H](NC(=O)CNC(=O)[C@H](CCC(N)=O)NC(=O)C1(NC(=O)[C@@H](N)Cc2c[nH]cn2)CC1)[C@@H](C)O)[C@@H](C)O)C(=O)N[C@@H](CCC(=O)O)C(=O)N[C@@H](CO)C(=O)N[C@@H](CCCNC(=N)N)C(=O)N[C@@H](CCCNC(=N)N)C(=O)N[C@@H](C)C(=O)N[C@@H](CCCNC(=N)N)C(=O)N[C@@H](CCC(=O)O)C(=O)N[C@@H](Cc1ccccc1)C(=O)N[C@H](C(=O)N[C@@H](CCC(N)=O)C(=O)N[C@@H](Cc1c[nH]c2ccccc12)C(=O)N[C@@H](CC(C)C)C(=O)N[C@@H](CC(C)C)C(=O)N[C@@H](CCCCNC(=O)CC[C@H](NC(=O)CC[C@H](NC(=O)COCCOCCNC(=O)COCCOCCNC(=O)CC[C@H](NC(=O)CCCCCCCCCCCCCCCCC(=O)O)C(=O)O)C(=O)O)C(=O)O)C(=O)N[C@H](C(N)=O)[C@@H](C)O)C(C)C
B2: N^ε28-[(4S)-4-carboxy-4-[[(4S)-4-carboxy-4-[[2-[2-[2-[[2-[2-[2-[[(4S)-4-carboxy-4-(17-carboxyheptadecanoylamino)butanoyl]amino]ethoxy]ethoxy]acetyl]amino]ethoxy … (peptide)
peptide: H[Aib]QGTFTSDLSKYLD[Aib]RRAREFVQWLLK([γGlu-γGlu-AEEA-AEEA-γGlu-C18 diacid])T-NH2
modifications: N-terminus assumed
SMILES: CC(C)C[C@H](NC(=O)[C@H](Cc1c[nH]c2ccccc12)NC(=O)[C@H](CCC(N)=O)NC(=O)[C@@H](NC(=O)[C@H](Cc1ccccc1)NC(=O)[C@H](CCC(=O)O)NC(=O)[C@H](CCCNC(=N)N)NC(=O)[C@H](C)NC(=O)[C@H](CCCNC(=N)N)NC(=O)[C@H](CCCNC(=N)N)NC(=O)C(C)(C)NC(=O)[C@H](CC(=O)O)NC(=O)[C@H](CC(C)C)NC(=O)[C@H](Cc1ccc(O)cc1)NC(=O)[C@H](CCCCN)NC(=O)[C@H](CO)NC(=O)[C@H](CC(C)C)NC(=O)[C@H](CC(=O)O)NC(=O)[C@H](CO)NC(=O)[C@@H](NC(=O)[C@H](Cc1ccccc1)NC(=O)[C@@H](NC(=O)CNC(=O)[C@H](CCC(N)=O)NC(=O)C(C)(C)NC(=O)[C@@H](N)Cc1c[nH]cn1)[C@@H](C)O)[C@@H](C)O)C(C)C)C(=O)N[C@@H](CC(C)C)C(=O)N[C@@H](CCCCNC(=O)CC[C@H](NC(=O)CC[C@H](NC(=O)COCCOCCNC(=O)COCCOCCNC(=O)CC[C@H](NC(=O)CCCCCCCCCCCCCCCCC(=O)O)C(=O)O)C(=O)O)C(=O)O)C(=O)N[C@H](C(N)=O)[C@@H](C)O

Assays:
human GLP-1 receptor [1] = target: T1, human GLP-1 receptor (human, UniProt P43220 24-463); assay: cell-based or functional assay
human glucagon receptor [2] = target: T2, human glucagon receptor (human, UniProt P47871 26-477); assay: cell-based or functional assay
T2 sequence (P47871 26-477): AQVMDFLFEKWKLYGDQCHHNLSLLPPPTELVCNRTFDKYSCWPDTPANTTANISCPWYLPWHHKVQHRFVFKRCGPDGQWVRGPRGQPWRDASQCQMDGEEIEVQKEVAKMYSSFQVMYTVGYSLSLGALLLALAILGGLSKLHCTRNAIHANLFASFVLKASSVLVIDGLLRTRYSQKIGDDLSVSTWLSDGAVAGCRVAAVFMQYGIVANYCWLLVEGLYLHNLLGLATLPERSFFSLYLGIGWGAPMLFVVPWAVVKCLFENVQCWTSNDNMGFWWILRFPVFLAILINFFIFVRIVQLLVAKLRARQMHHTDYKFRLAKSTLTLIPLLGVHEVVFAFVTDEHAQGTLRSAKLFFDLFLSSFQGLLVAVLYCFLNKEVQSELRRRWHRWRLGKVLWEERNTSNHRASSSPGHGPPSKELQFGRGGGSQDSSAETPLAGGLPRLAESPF

human GLP-1 receptor [3] = target: T1, human GLP-1 receptor; assay: displacement of 125I-GLP-1(7-36)NH2, membranes with human GLP-1R, SPA
Description: (§1) The receptor binding of each compound to the human GLP-1 receptor was measured in a displacement binding assay. […] Each derivative was added in a series of concentrations to isolated membranes containing the human GLP-1 receptor and displacement of the labelled ligand was monitored. The receptor binding was reported as the concentration at which half of the labelled ligand was displaced from the receptor, the IC₅₀ value.

human glucagon receptor [4] = target: T2, human glucagon receptor; assay: displacement of 125I-glucagon, membranes with human glucagon receptor, SPA
Description: as §1, with “human glucagon” for “human GLP-1”, “ligand is” for “ligand was”

Binder | EC50 GLP-1R, CRE luciferase reporter gene assay in BHK cells (human GLP-1 receptor [1]) | EC50 GlucR, CRE luciferase reporter gene assay in BHK cells (human glucagon receptor [2]) | IC50 (human GLP-1 receptor [3]) | IC50 (human glucagon receptor [4])
B1 | 0.011 nM | 0.28 nM | 2.2 nM | 26.2 nM
B2 | 0.006 nM | 0.004 nM | 0.7 nM | 1.4 nM
